Measured values reported in the supplement of paper PMC9876800.

System: peptide library, one residue held at a place counted from the S/T acceptor
Test: relative phosphorylation of the sub-library (ratio to the mean residue at this position); higher = residue favoured
Conditions: human
Procedure, shortened: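 Human or orthologue kinase constructs, purified and recombinant, were incubated under kinase-specific conditions in 384-well plates with biotinylated degenerate peptide sub-libraries. Each sub-library fixed one residue at one position around a central Ser/Thr. Incubations lasted 90 min with peptides at 50 μM and 50 μM ATP spiked with γ-32P-ATP, after which spots on streptavidin membranes were phosphorimaged and quantified by densitometry. Relative sub-library phosphorylation is a ratio to the mean residue at that position.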

STK26, construct: Full length, sequence (Q9P289 whole entry, looked up): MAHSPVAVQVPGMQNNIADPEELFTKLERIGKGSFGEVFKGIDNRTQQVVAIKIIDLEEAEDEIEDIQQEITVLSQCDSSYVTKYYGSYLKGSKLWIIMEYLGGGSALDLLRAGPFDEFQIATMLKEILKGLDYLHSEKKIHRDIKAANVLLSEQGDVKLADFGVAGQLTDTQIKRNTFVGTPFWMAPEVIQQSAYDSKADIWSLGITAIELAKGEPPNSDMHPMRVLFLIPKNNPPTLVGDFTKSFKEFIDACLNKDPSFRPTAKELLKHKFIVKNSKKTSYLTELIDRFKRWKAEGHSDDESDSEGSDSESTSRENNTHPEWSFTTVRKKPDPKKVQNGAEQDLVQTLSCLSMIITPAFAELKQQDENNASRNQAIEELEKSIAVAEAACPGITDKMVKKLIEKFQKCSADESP

STK26, construct: Full length (from UniProt Q9P289)
relative phosphorylation
Conditions | at +1 | at +2 | at +3 | at +4 | at -1 | at -2 | at -3 | at -4 | at -5
A fixed | 0.593 | 0.524 | 0.871 | 0.922 | 0.76 | 0.947 | 0.809 | 1.21 | 1.23
D fixed | 0.265 | 0.606 | 0.583 | 0.538 | 0.894 | 0.424 | 0.625 | 0.745 | 0.706
E fixed | 0.21 | 0.519 | 0.525 | 0.538 | 0.475 | 0.373 | 0.616 | 0.797 | 0.653
F fixed | 1.24 | 0.246 | 0.869 | 0.625 | 0.499 | 0.972 | 0.754 | 0.771 | 0.777
G fixed | 0.583 | 2.19 | 1.44 | 0.991 | 2.31 | 1.21 | 1.09 | 1.09 | 1.03
H fixed | 0.805 | 1.06 | 1 | 1.06 | 1.11 | 1.35 | 1.01 | 1.17 | 1.05
I fixed | 1.56 | 0.511 | 0.798 | 0.971 | 0.397 | 0.759 | 0.711 | 0.83 | 0.929
K fixed | 0.666 | 3.49 | 2.55 | 2.01 | 2.16 | 2.08 | 2.31 | 1.64 | 1.92
L fixed | 1.78 | 0.402 | 1.05 | 0.77 | 0.78 | 0.549 | 0.665 | 0.682 | 0.783
M fixed | 1.3 | 0.358 | 0.667 | 0.818 | 0.666 | 0.613 | 0.79 | 0.773 | 0.74
N fixed | 0.53 | 1.27 | 0.771 | 0.862 | 1.39 | 1.15 | 1.15 | 1.08 | 0.994
P fixed | 0.372 | 1.03 | 0.636 | 0.828 | 0.551 | 0.659 | 0.739 | 0.879 | 0.791
Q fixed | 0.642 | 0.774 | 0.741 | 0.932 | 0.938 | 0.882 | 0.903 | 0.939 | 1
R fixed | 0.722 | 2.77 | 2.16 | 1.89 | 2.15 | 2.03 | 2.21 | 1.64 | 1.61
V fixed | 1.4 | 0.517 | 0.751 | 0.874 | 0.483 | 0.942 | 0.846 | 0.954 | 1.01
W fixed | 3.2 | 0.394 | 0.814 | 1.38 | 0.821 | 1.01 | 0.943 | 0.941 | 0.969
Y fixed | 1.12 | 0.326 | 0.767 | 0.994 | 0.607 | 1.05 | 0.824 | 0.876 | 0.812
pThr fixed | 0.722 | 0.707 | 0.584 | 0.815 | 0.813 | 1.05 | 0.981 | 0.958 | 0.86
pTyr fixed | 0.604 | 0.368 | 0.714 | 0.54 | 1.2 | 1.19 | 0.996 | 0.69 | 0.834
